Test results reported in US9228015B2, “Nogo receptor antagonists and methods of increasing neurite outgrowth” (Biogen Idec MA Inc., priority 2006, dated 2016).
“Also recorded” adds a separate entry of the source.

Assays:
NgR3 = target: T1, NgR3 (Homo sapiens, UniProt Q86UN2); experiment: Antibody binding specificity: NgR3
T1 sequence (Q86UN2 with tags, fused parts or gaps V54E/V59I/G67T/L68F/P71Q/Y90F/H92A/S94N/V144I/P190Q/T192I/R221H/S234T/E239D/G245V/P256A/Q271R/V283A/S284T/G286E/H289Q/A298V/A308V/T321S/S331P/P332S/P335A/T336S/S338D/P345H/R346P/H349S/INS350SGYK/P352A/N358S/P359H/A368V/G369S/A370S/Q373E/A374L/P375T/P378Q): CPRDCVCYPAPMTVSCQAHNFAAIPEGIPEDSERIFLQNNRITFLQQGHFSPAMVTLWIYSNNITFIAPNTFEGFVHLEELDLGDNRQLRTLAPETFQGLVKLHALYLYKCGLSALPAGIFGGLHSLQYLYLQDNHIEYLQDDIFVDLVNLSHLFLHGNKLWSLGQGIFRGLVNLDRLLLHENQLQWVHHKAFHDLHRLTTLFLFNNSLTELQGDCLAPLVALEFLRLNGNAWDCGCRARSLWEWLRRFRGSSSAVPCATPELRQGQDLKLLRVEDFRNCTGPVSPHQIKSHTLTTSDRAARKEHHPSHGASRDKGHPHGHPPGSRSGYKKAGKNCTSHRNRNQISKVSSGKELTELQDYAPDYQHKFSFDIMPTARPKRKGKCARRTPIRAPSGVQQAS

[1] = tested on: DRG neurons, myelin-mediated inhibition of neurite outgrowth; experiment: Neurite outgrowth assay, P3-4 rat DRG neurons on CNS myelin (Example 5); assay type: cell-based; details: mAb added after plating
Protocol: To test the ability of the monoclonal and Fab-phage antibodies produced above to lessen the inhibitory effect of CNS myelin on neurons, Lab-Tek® culture slides (4 wells) were coated with 0.1 mg/ml poly-D-lysine (Sigma®). CNS myelin or PBS was spotted as 3 μl drops. Fluorescent microspheres (Polysciences) were added to the myelin/PBS to allow later identification of the drops (Grandpre et al., Nature 403:439-444 (2000)). Lab-Tek® slides were then rinsed and coated with 10 μg/ml laminin (Gibco™). Dorsal root ganglions (DRG's) from P3-4 Sprague Dawley rat pups were dissociated with 1 mg/ml collagenase type 1 (Worthington), triturated with fire-polished Pasteur pipettes pre-plated to enrich in neuronal cells and finally plated at 23,000 cells/well on the pre-coated Lab-Tek® culture slides. The culture medium was F12 containing 5% heat inactivated donor horse serum, 5% heat inactivated fetal bovine serum and 50 ng/ml mNGF and incubated at 37° C. and 5% CO2 for 6 hours. Fifteen […] of mAb 7E11 was added immediately after plating.
Slides were fixed for 20 minutes with 4% paraformaldehyde containing 20% sucrose and stained for the neuronal marker anti beta-III-tubulin (Covance TUJ1) diluted 1:500. […] 5× digital images were acquired with OpenLab™ software and analysed by using the MetaMorph® software for quantification of neurite outgrowth.

[2] = target: T2, fragments of rat NgR1 (sNgR310) (Rattus norvegicus, UniProt Q99M75, A303T/C287S/E284G); experiment: Western blot of acid/CNBr fragments of sNgR310 probed with 7E11; assay type: binding
T2 construct: intact rat NgR1 (aa 27-aa 310); made in house
T2 sequence (Q99M75 123-310 E284G/C287S/A303T): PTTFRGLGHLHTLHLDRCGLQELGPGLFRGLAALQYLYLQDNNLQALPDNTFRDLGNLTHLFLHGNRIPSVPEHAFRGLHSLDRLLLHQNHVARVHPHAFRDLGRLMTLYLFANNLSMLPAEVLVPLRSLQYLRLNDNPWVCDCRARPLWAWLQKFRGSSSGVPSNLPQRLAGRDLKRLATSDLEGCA
Protocol: (§1) A recombinant fragment of the rat NgR1 that contains all 8 LRR domains and the N- and C-terminal caps (sNgR310) was treated with either acid or cyanogen bromide (CNBr) and separated the fragments by gel electrophoresis. Untreated sNgR310 migrates with an apparent molecular weight of 42 kDa. Acid treatment of sNgR310 produced two major cleavage products of 15 kDa (aa 27-aa 122) and 30 kDa (aa 123-aa 310). CNBr treatment generated three fragments, a 33/35 kDa doublet (aa 27-aa 229), which may represent fragments with heterogeneous glycosylation, a 10 kDa product (aa 241-aa 310), and an 11-amino-acid fragment (as 230-aa 240), which is not retained on the gel. […] Both the 15 kDa acid fragment and the 35 kDa CNBr fragment contained the sequence […] (SEQ ID NO: 1), consistent with 7E11 binding to a single epitope on NgR1.

[3] = target: T3, fragments of rat NgR1 (sNgR310) (Rattus norvegicus, UniProt Q99M75, C43R/T53A); experiment: as above; assay type: binding
T3 construct: intact rat NgR1 (aa 27-aa 310); made in house
T3 sequence (Q99M75 27-122 C43R/T53A): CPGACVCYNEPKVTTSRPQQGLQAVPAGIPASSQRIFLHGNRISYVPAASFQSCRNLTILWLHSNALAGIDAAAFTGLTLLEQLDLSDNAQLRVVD
Protocol: as §1

[4] = target: T4, fragments of rat NgR1 (sNgR310) (Rattus norvegicus, UniProt Q99M75, C43R/T53A); experiment: as above; assay type: binding; remark: listed apart in the source
T4 construct: intact rat NgR1 (aa 27-aa 310); made in house
T4 sequence (Q99M75 27-229 C43R/T53A): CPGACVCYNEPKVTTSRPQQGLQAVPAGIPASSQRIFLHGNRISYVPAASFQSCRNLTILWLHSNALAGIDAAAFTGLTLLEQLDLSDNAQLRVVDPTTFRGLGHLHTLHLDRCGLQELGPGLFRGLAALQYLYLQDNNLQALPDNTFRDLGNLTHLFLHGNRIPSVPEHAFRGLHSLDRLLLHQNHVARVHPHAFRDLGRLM
Protocol: as §1

[5] = target: T5, fragments of rat NgR1 (sNgR310) (Rattus norvegicus, UniProt Q99M75, A303T/C287S/C43R/E284G/T53A); experiment: as above; assay type: binding
T5 construct: intact rat NgR1 (aa 27-aa 310); made in house
T5 sequence (Q99M75 27-310 C43R/T53A/E284G/C287S/A303T): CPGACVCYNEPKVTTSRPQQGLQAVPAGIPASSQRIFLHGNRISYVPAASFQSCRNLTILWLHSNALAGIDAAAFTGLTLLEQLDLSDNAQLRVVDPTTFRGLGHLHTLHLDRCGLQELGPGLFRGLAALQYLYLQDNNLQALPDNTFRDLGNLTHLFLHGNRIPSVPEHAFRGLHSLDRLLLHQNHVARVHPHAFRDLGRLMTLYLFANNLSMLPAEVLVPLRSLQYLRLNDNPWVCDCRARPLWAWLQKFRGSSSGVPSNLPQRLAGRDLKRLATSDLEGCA
Protocol: as §1

[6] = target: T6, fragments of rat NgR1 (sNgR310) (Rattus norvegicus, UniProt Q99M75, A303T/C287S/E284G); experiment: as above; assay type: binding; remark: listed apart in the source
T6 construct: intact rat NgR1 (aa 27-aa 310); made in house
T6 sequence (Q99M75 241-310 E284G/C287S/A303T): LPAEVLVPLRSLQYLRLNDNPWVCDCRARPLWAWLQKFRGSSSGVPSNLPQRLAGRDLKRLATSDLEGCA
Protocol: as §1

human NgR1 = target: T7, human NgR1 (Homo sapiens, UniProt Q9BZR6); experiment: Antibody binding specificity: human Nogo receptor-1
T7 sequence (Q9BZR6 27-447): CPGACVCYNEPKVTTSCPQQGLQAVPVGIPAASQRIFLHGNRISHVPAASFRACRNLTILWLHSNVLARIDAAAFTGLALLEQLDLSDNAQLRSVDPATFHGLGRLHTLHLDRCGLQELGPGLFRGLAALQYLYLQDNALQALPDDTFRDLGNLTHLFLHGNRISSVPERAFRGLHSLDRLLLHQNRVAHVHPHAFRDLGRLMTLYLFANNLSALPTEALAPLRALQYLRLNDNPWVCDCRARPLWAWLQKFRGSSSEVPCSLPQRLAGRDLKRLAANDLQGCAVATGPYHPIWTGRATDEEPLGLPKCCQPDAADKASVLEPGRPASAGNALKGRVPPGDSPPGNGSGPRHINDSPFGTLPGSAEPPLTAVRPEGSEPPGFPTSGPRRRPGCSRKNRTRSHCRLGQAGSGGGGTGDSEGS

B1: 7E11: murine monoclonal anti-Nogo receptor-1 antibody, immunogen rat Nogo receptor-1 residues 110-125, IgG1 kappa, ATCC PTA-4587 (antibody, V domains shown)
VH: VQLQESGAELVMPGASVKMSCKASGYTFTDYWMHWVKQRPGQGLEWIGAIDPSDSYSSYNQNFKGKATLTVDGSSSTAYMQLSSLTSEDSAVYYCARRITEAGAWFAYWGQGTTVT
VL: MKLPVRLLVLMFWIPASSSDVVMTQTPLSLPVSLGDQASISCRSSQSLVHSNGNTYLHWYLQKPGQSPKLLIYKVSNRFSGVPDRFSGSGSGTDFTLKISRVDAEDLGVYFCSQSTHVPFTFGGGTKLEIKRADAAPTVSISHH
modifications: 7E11 heavy chain; 7E11 light chain
notes: murine monoclonal anti-Nogo receptor-1 antibody, immunogen rat Nogo receptor-1 residues 110-125, IgG1 kappa, ATCC PTA-4587
NgR3
  binding to NgR3: does not bind well
[1]
  protection of DRG neurons from myelin-mediated inhibition of neurite outgrowth: protected
[2]
  binding to the 30 kDa acid fragment (aa 123-aa 310): did not bind
[3]
  binding to the 15 kDa acid fragment (aa 27-aa 122): bound
[4]
  binding to the 35 kDa CNBr fragment (aa 27-aa 229): bound
[5]
  binding to intact rat NgR1 (aa 27-aa 310): bound
[6]
  binding to the 10 kDa CNBr fragment (aa 241-aa 310): did not bind
Human NgR1
  binding to human Nogo receptor-1: bound; also recorded: binds well
